Reference: PMC7094243

Columns and labels:
[1] = molecular target: T1, SARS coronavirus non-structural protein 15 (Nsp15), wild-type, His-tagged (SARS coronavirus (SARS-CoV)), P0C6X7; assay: SEC; details: remark: other sources report otherwise
T1 chain: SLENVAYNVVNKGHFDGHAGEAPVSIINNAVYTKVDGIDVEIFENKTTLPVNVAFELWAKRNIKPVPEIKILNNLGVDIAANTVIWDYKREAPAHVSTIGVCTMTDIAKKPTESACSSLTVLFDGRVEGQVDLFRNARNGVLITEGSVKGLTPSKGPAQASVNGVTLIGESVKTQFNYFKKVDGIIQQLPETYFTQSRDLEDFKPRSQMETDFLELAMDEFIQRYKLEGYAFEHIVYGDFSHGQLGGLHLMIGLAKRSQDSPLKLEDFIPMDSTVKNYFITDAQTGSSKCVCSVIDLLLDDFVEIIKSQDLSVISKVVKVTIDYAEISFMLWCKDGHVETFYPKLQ

[2] = molecular target: T1, SARS coronavirus non-structural protein …; assay: AUC; details: remark: other sources report otherwise

B1: SARS coronavirus non-structural protein 15 (Nsp15), wild-type, His-tagged, P0C6X7 (enzyme)
chain: T1 chain
percent of total protein hexameric [1]: 90% | stoichiometry N [1]: 6 | stoichiometry N [2]: 6
